The values that follow come from paper PMC9279222, “Human myelin proteolipid protein structure and lipid bilayer stacking” (Cellular and Molecular Life Sciences: CMLS, 2022).

This data set concerns the molecule itself. As to the kind of experiment: SEC-MALS; protein conjugate analysis; 50 µg protein on Superdex 200 Increase 10/300 in 0.2% DM, 0.3 M NaCl, 0.5 mM TCEP, 5% glycerol, 20 mM Tris pH 7.5; protein-detergent complex.

B1: human DM20 (shorter isoform of myelin proteolipid protein) (natural protein, UniProt P60201-2 1-242, looked up)
chain: MGLLECCARCLVGAPFASLVATGLCFFGVALFCGCGHEALTGTEKLIETYFSKNYQDYEYLINVIHAFQYVIYGTASFFFLYGALLLAEGFYTTGAVRQIFGDYKTTICGKGLSATFVGITYALTVVWLLVFACSAVPVYIYFNTWTTCQSIAFPSKTSASIGSLCADARMYGVLPWNAFPGKVCGSNLLSICKTAEFQMTFHLFIAAFVGAAATLVSLLTFMIAATYNFAVLKLMGRGTKF
notes: DM20, minor isoform of human PLP (26 kDa), lacks 35 residues in the intracellular loop; Studied in a detergent complex (DM or UDM); source: Sf21 insect cells (baculovirus), solubilized in DM or UDM, purified (IMAC, TEV cleavage, reverse IMAC, SEC); not shown: eGFP, C-terminal, cleaved; His8, C-terminal, cleaved
Consider B1, for which the “stoichiometry N” value was 2.

B2: human myelin proteolipid protein (natural protein, UniProt P60201-1 1-277, looked up)
chain: MGLLECCARCLVGAPFASLVATGLCFFGVALFCGCGHEALTGTEKLIETYFSKNYQDYEYLINVIHAFQYVIYGTASFFFLYGALLLAEGFYTTGAVRQIFGDYKTTICGKGLSATVTGGQKGRGSRGQHQAHSLERVCHCLGKWLGHPDKFVGITYALTVVWLLVFACSAVPVYIYFNTWTTCQSIAFPSKTSASIGSLCADARMYGVLPWNAFPGKVCGSNLLSICKTAEFQMTFHLFIAAFVGAAATLVSLLTFMIAATYNFAVLKLMGRGTKF
notes: myelin proteolipid protein (PLP), human, 30 kDa; cloned from acc; NM_000533; Studied in a detergent complex (DM, UDM or d-DDM); also called PLP; myelin PLP; source: Sf21 insect cells (baculovirus), solubilized in DM or UDM, purified (IMAC, TEV cleavage, reverse IMAC, SEC); not shown: eGFP, C-terminal, cleaved; His8, C-terminal, cleaved
As for B2, the “stoichiometry N” value was 2.
